# In PMC11912399:
# Columns and labels:
# [1] = biological target: CrImpαΔIBB (Chlamydomonas reinhardtii importin α IPA1, Cre04.g215850, lacking the autoinhibitory IBB domain) (Chlamydomonas reinhardtii); experiment: ELISA
# [2] = biological target: CrImpαΔIBB (Chlamydomonas reinhardtii importin α IPA1, Cre04.g215850, lacking the autoinhibitory IBB domain) (Chlamydomonas reinhardtii); experiment: MST
Substance,Kd [1],Kd [2]
EC Cas9 (Cas9 with the VirE2^O NLS fused to its C-terminus) (enzyme),6.9 nM,–
D^K1AR2AN Cas9 (DN Cas9 with K1A and R2A in the VirD2^O NLS) (enzyme),13.3 nM,–
DN Cas9 (Cas9 with the VirD2^O NLS fused to its N-terminus) (enzyme),4.79 nM,4.48 nM
PN Cas9 (Cas9 with the putative endogenous CrPAP1 NLS fused to its N-terminus) (enzyme),17.1 nM,–
DC Cas9 (Cas9 with the VirD2^O NLS fused to its C-terminus) (enzyme),5.01 nM,–
"D^K1AR2AR15AN Cas9 (DN Cas9 with K1A, R2A and R15A in the VirD2^O NLS) (enzyme)",42.6 nM,–
EN Cas9 (Cas9 with the VirE2^O NLS fused to its N-terminus) (enzyme),7.81 nM,–
D^NopN Cas9 (Cas9 with the nopaline-type VirD2^N NLS fused to its N-terminus) (enzyme),7.88 nM,–
SN Cas9 (Cas9 with the SV40TAg NLS fused to its N-terminus) (enzyme),8.73 nM,11.4 nM
D^R15AN Cas9 (DN Cas9 with R15A in the VirD2^O NLS) (enzyme),15.2 nM,–
SC Cas9 (Cas9 with the SV40TAg NLS fused to its C-terminus) (enzyme),9.21 nM,–
